We go through three variants from PMC5148612.

B1: Atg12~Atg5-Atg16-mCherry complex [modified: conjugated to Atg5 (Atg12~Atg5 protein conjugate) | conjugated to Atg12; conjugated to Atg5 (Atg12~Atg5 protein conjugate); conjugated to Atg12] [S. cerevisiae] / … (parent)
chain 1: MSRILESENETESDESSIISTNNGTAMERSRNNQELRSSPHTVQNRLELFSRRLSQLGLASDISVDQQVEDSSSGTYEQEETIKTNAQTSKQKSHKDEKNIQKIQIKFQPIGSIGQLKPSVCKISMSQSFAMVILFLKRRLKMDHVYCYINNSFAPSPQQNIGELWMQFKTNDELIVSYCASVAFG
chain 2: MNDIKQLLWNGELNVLVSIDPSFLMKGSPREIAVLRIRVPRETYLVNYMPLIWNKIKSFLSFDPLTDSEKYFWFEHNKTPIPWNYPVGVLFDCLAGKSATFTTSFENQVKDVLTFLRIHLVMGDSLPPTIIPIASSKTQAEKFWFHQWKQVCFILNGSSKAIMSLSVNEARKFWGSVITRNFQDFIEISNKISSSRPRHIPLIIQTSRTSGTFRISQPTISMTGVNPTLKDIEGDILDVKEGINGNDVMVICQGIEIPWHMLLYDLYSKLRSFDGFLYITLVPIKGGDKASSEL
chain 3: MGNFIITERKKAKEERSNPQTDSMDDLLIRRLTDRNDKEAHLNELFQDNSGAIGGNIVSHDDALLNTLAILQKELKSKEQEIRRLKEVIALKNKNTERLNDELISGTIENNVLQQKLSDLKKEHSQLVARWLKKTEKETEAMNSEIDGTK
chain 4: MEEQREILEQLKKTLQMLTVEPSKNNQIANEEKEKKENENSWCIL
chain 5: MNNSKTNQQMNTSMGYPLTVYDECNKFQLIVPTLDANIMLWCIGQLSLLNDSNGCKHLFWQPNDKSNVRILLNNYDYGHLFKYLQCQRKCSVYIGEGTLKKYNLTISTSFDNFLDLTPSEEKESLCREDAHEDPVSPKAGSEEEISPNSTSNVVVSRECLDNFMKQLLKLEESLNKLELEQKVTNKEPNHRISGTIDIPEDRSELVNFFTELKTVKQLEDVFQRYHDYERLSQECDSKTEIASDHSKKETKIEVEPPNERSLQITMNQRDNSLYFQLFNNTNSVLAGNCKLKFTDAGDKPTTQIIDMGPHEIGIKEYKEYRYFPYALDLEAGSTIEIENQYGEVIFLGKYGSSPMINLRPPSRLSAESLQASQEPFYSFQIDTLPELDDSSIISTSISLSYDGDDNEKALTWEEL

In the experiment the parent is B1. In words: microscopy-based bead recruitment assay (mCherry signal at cargo mimetic beads). The note with it: with GST-prApe1(1–45) + Atg19 [S. cerevisiae]; 25 mM HEPES pH 7.5, 150 NaCl and 1 mM DTT; parent: 100; read off a plot.
Take chain 2 K57E N84E: the percent of parent amounted to 55%.
As for chain 2 K57E, the percent of parent was found to be 68%.
For chain 2 N84E, the percent of parent worked out at 70%.
